Substitutions are numbered along the chain they refer to.
T1: FimA (Salmonella Type-1 fimbrial protein, A chain), recombinant (Salmonella (serovar ), UniProt P37921 23-185)
T1 sequence: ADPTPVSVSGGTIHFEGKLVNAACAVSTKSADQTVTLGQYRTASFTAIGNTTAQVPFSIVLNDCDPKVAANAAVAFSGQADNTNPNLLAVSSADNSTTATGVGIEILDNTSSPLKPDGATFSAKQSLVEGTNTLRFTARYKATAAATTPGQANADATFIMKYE

T2: PrgI (Salmonella Type III secretion needle protein), recombinant (Salmonella typhimurium (strain LT2) as …, UniProt P41784 1-80)
T2 sequence: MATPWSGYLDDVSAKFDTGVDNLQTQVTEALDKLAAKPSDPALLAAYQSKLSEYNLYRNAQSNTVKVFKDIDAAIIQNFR

B1: NBX0100 (VHH)
VHH: QVKLEESGGGLVQAGGSLRLSCAVSGSIFSTNLMGWYRQAPGKQRGFVAHITSGGNTDYLDSVKGRFTISRDNAKNTVYLQMNSLKPEDTAVYYCAAQTLGSSYYDAWGQGTQVTVSS
notes: also called Clone 92
B2: NBX0200 (VHH)
VHH: QVQLQESGGGLVQAGGSLRLSCAASGRTSSSAYTAWFRQAPGNEREFVASISWSGTTTYYADPVKGRFTISRDNAKNTVYLQMNSLKPDDTAVYYCAADRRSTIGSPRQQYAYWGQGTQVTVSS
notes: also called Clone 97
B3: NBX0203 (VHH)
VHH: B2 VHH with E6Q, S30P, A32S
notes: also called Clone 100
B4: NBX0201 (VHH)
VHH: B2 VHH with G26T, A32S, W53Y, N74S
notes: also called Clone 98
B5: NBX0202 (VHH)
VHH: B2 VHH with Y60H, D62H, S71F, A92G, S106T, Q109E
notes: also called Clone 99
B6: NBX0108 (VHH)
VHH: QVKLEESGGGLVRAGGSLTLSCGASRGTFRTYSMGWFRQAPGKEREFVAAITWNGKYTYYGDSVQGRFTISKDNAKNTVSLQMNRLNPEDTAVYYCAANPIPTAQPPGIMAARSYVHWGQGTQVTVSS
notes: also called Clone 95

Target: T1, FimA (Salmonella Type-1 fimbrial …)
Test: phage ELISA, antigen-coated wells, anti-M13-HRP, A405

Row | Binder | binding over background (PBS-only wells) [fold]
1 | B1 | ≥ 4
2 | B2 | ≥ 4
3 | B3 | ≥ 4
4 | B4 | ≥ 4
5 | B5 | ≥ 4

Target: T2, PrgI (Salmonella Type III secretion …)
Test: as above

Row | Binder | binding over background (PBS-only wells) [fold]
6 | B6 | ≥ 4

From patent publication US20190202896A1 (NOVOBIND LIVESTOCK THERAPEUTICS, published 2019)
